According to patent EP4782466A1, “FUSION PROTEIN FOR INACTIVATING CORONAVIRUS AND USE THEREOF” (priority 2023, dated 2025):

What was measured:
Experiment in all cases: cell-based or functional assay
[1] = target: S protein of SARS-CoV (SARS-CoV) (UniProt P59594)
[2] = target: S protein of bat-derived SARS-CoV-like coronavirus Rs3367 (bat-derived SARS-CoV-like coronavirus Rs3367)
[3] = target: S protein of bat-derived SARS-CoV-like coronavirus WIV1 (bat-derived SARS-CoV-like coronavirus WIV1)
[4] = target: S protein of SARS-CoV-2 prototype strain (SARS-CoV-2 prototype) (UniProt P0DTC2)
[5] = target: S protein of Human Coronavirus NL63 (Human Coronavirus NL63) (UniProt Q6Q1S2)

Substance	EC50, inactivation of pseudovirus (Caco-2, luciferase) [1] [µM]	IC50, inhibition of pseudovirus infection (Caco-2, luciferase) [1] [µM]	EC50, inactivation of pseudovirus (Caco-2, luciferase) [2] [µM]	IC50, inhibition of pseudovirus infection (Caco-2, luciferase) [2] [µM]	EC50, inactivation of pseudovirus (Caco-2, luciferase) [3] [µM]	IC50, inhibition of pseudovirus infection (Caco-2, luciferase) [3] [µM]	IC50, inhibition of pseudovirus infection (Caco-2, luciferase) [4] [µM]	IC50, inhibition of pseudovirus infection (Caco-2, luciferase) [5] [µM]	also measured
ACE2 protein alone (ACE2 peptidase domain alone) (from UniProt Q9BYF1 18-615) (receptor)	1.24	0.0095	0.274	0.249	0.758	0.239	–	–	–
AL2E protein (ACE2-linker-EK1 fusion protein with (GGGGS)2 linker) (from UniProt Q9BYF1 18-615)	–	–	–	–	–	–	0.0006	–	–
AL5E protein (ACE2-linker-EK1 fusion protein with (GGGGS)5 linker)	0.0181	0.00069	0.0107	0.0059	0.00354	0.00336	0.00026	0.00083	EC50, inactivation of pseudovirus (Caco-2, luciferase) [5]: 0.00108 µM; Fold enhancement in activity of AL5E over ACE2 (EC50, pseudovirus inactivation) [5]: 540 fold; Fold enhancement in activity of AL5E over ACE2 (IC50, pseudovirus inhibition) [5]: 34.4 fold; Fold enhancement in activity of AL5E over ACE2 (EC50, pseudovirus inactivation) [1]: 68.1 fold; Fold enhancement in activity of AL5E over ACE2 (IC50, pseudovirus inhibition) [1]: 13.8 fold; EC50, inactivation of pseudovirus (Caco-2, luciferase) [4]: 0.0051 µM; Fold enhancement of AL5E over ACE2 (EC50, pseudovirus inactivation) [4]: 22.2 fold; Fold enhancement of AL5E over ACE2 (IC50, pseudovirus inhibition) [4]: 26.9 fold; Fold enhancement in activity of AL5E over ACE2 (EC50, pseudovirus inactivation) [2]: 25.6 fold; Fold enhancement in activity of AL5E over ACE2 (IC50, pseudovirus inhibition) [2]: 42.2 fold; Fold enhancement in activity of AL5E over ACE2 (EC50, pseudovirus inactivation) [3]: 214 fold; Fold enhancement in activity of AL5E over ACE2 (IC50, pseudovirus inhibition) [3]: 71.2 fold
AL6E protein (ACE2-linker-EK1 fusion protein with (GGGGS)6 linker)	–	–	–	–	–	–	0.00023	–	–
AL7E protein (ACE2-linker-EK1 fusion protein with (GGGGS)7 linker)	–	–	–	–	–	–	0.00037	–	–
EK1 polypeptide	–	0.841	–	1.34	–	2.45	0.186	1.07	–
